Measurements: IntAct's records for PubMed 27150043

Biological target: ab1ip_mouse Apbb1ip (UniProt Q8R5A3)
Sequence of UniProt Q8R5A3 (Q8R5A3 whole entry): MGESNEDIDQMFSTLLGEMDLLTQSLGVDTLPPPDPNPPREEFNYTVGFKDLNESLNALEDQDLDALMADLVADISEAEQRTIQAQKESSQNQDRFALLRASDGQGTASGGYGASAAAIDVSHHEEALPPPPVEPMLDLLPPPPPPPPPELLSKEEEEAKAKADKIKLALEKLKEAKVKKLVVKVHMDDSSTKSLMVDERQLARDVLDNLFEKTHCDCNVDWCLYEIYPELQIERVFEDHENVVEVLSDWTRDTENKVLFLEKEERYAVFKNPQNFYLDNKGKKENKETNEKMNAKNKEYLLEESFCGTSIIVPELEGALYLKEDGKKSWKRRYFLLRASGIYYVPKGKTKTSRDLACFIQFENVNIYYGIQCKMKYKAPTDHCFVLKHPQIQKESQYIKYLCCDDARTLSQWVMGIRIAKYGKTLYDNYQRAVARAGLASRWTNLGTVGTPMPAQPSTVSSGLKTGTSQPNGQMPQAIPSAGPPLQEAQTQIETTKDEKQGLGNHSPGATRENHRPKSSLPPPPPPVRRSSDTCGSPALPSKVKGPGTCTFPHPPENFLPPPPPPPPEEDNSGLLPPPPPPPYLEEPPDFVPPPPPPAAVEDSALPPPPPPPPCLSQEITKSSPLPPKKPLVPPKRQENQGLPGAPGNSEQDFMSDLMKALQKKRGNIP

| effect of a mutation on the interaction | Substance |
| --- | --- |
| decreasing interaction strength | Talin-1 (Mus musculus), P26039 E1794Y;E1797Y;Q1801Y |
| decreasing interaction strength | Talin-1 (Mus musculus), P26039 E1794Y;E1797Y |
